What was measured:
[1] = target: variant of anophensin with the N-terminus extended by the retention of three amino acids from the signal peptide (Anopheles stephensi) (UniProt A5HUP6); assay: crystal structure; lengthened anophensin, space group P2_(1)2_(1)2, three monomers in the asymmetric unit, SAD with a selenomethionine derivative
properdin (human) = properdin (human) (UniProt P27918); assay: SPR; Biacore T100; properdin amine-coupled to a CM5 chip (5000 RU); C3b (20 μg/ml), factor B (20 μg/ml) and factor D (2 μg/ml) in HBS/MgCl2 injected at 30 μl/min for 120 s without or with SG7.AF, albicin or anophensin (Fig. 9C: 56.8 nM C3b, 107.5 nM factor B, 41.7 nM factor D, inhibitors 1 μM); dissociation at 1 μM inhibitor fitted to a double exponential decay
properdin (human), sequence (P27918 28-469): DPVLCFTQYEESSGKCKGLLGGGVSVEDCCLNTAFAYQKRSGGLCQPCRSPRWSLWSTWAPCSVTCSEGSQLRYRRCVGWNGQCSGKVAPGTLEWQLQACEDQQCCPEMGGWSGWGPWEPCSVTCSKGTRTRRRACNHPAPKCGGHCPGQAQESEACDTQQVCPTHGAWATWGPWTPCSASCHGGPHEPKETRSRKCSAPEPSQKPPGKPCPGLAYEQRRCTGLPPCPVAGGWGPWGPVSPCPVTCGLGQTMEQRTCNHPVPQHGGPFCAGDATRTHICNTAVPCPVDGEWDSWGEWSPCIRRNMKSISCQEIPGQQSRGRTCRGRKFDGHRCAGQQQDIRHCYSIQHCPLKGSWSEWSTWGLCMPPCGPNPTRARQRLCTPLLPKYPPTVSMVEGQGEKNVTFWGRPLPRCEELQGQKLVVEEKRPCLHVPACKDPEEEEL

Row | Substance | stoichiometry N [1] | koff, fast phase of a double exponential decay (properdin (human)) [s⁻¹] | koff, slow phase of a double exponential decay (properdin (human)) [s⁻¹]
1 | variant of anophensin with the N-terminus extended by the retention of three amino acids from the signal peptide (from UniProt A5HUP6 28-142) (natural protein) | 2 | – | –
2 | albicin-bound C3bBb complex (from UniProt P01024 749-1663; P01024 749-1663; P00751 260-764; A0A1Y9G8D0 27-142) | – | 0.02 | 0.003
3 | SG7.AF-bound C3bBb complex (from UniProt P01024 749-1663; P01024 749-1663; P00751 260-764; C0HMB5 1-119) | – | 0.02 | 0.003
